Source: article PMC10171809

Molecular target: HEXIM1 (UniProt O94992)
Assay: co-immunoprecipitation
Settings: reference: wild type; sites S43

- binding against the reference: stronger
Substance: METTL3 (from UniProt Q86U44) S43A
